Test results: patent US20050118674A1, “Engineering of Controlled Deamidation Rates in Peptides, Proteins, and Similar Structures” (priority 2003, published 2005)
Where no end group is shown, it is not given here.

Test: First-order nonenzymatic deamidation of pentapeptides in Tris buffer
Format: physicochemical
Settings: pH 7.4, 37.0° C., 0.15 M Tris HCl; Asn pentapeptides
Description: One of the discoveries made was that the sequence dependence of deamidation is much richer and covers a wider range than previously thought. In 37° C., pH 7.4, 0.15 M Tris buffer, the combination of XxxAsnYyy and XxxGlnYyy sequences where Xxx and Yyy are any of the naturally occuring amino acids covers a range from less than 1 day to over 15,000 days with the entire range in between available.
It is based on pentapeptide rates measure in 37° C., pH 7.4, 0.15 M Tris buffer. The applicability of a pentapeptide model to sequence dependence was verified in a separate set of experiments. All values listed in this table are experimental except for the four values in boxes, which were estimated from the rest of the data.
It is also based on pentapeptide rates measure in 37° C., pH 7.4, 0.15 M Tris buffer. In this case, the 52 values shown in bold were measured, and the rest of the values were derived from surface fitting.
Deamidation rates are affected by a wide variety of parameters, including, pH, Temperature, Ionic Strength, and Buffer Ions. These rates are measured under pH and Temperature conditions that are applicable to biological systems. The buffer type and concentration were chosen to minimize ion affects to the extent possible given the experimental limitations. Modification of these conditions will change the rates in Tables 1 and 2. As long as the conditions are not taken to extremes (i.e. high temperature, or strongly acidic or basic conditions) the qualitative sequence dependence should remain the same and the rates reported here can be used with necessary adjustments.

| Substance | First-Order Deamidation Halftimes of GlyXxxAsnYyyGly |
| --- | --- |
| GlyLeuAsnAlaGly (GLNAG; printed: GlyLeuAsnAlaGly) | 25.1 days |
| GlyAmCysAsnValGly (CNVG; not fully specified (N-terminus); printed as GlyAmCysAsnValGly; also: glycinamide shown before Cys, linkage not given here) | 215 days |
| GlyAspAsnGlyGly (GDNGG; printed: GlyAspAsnGlyGly) | 1.53 days |
| GlyLysAsnMetGly (GKNMG; printed: GlyLysAsnMetGly) | 60.9 days |
| GlyCysAsnArgGly (GCNRG; printed: GlyCysAsnArgGly) | 83.1 days |
| GlyIleAsnPheGly (GINFG; printed: GlyIleAsnPheGly) | 61.5 days |
| GlyThrAsnHisGly (GTNHG; printed: GlyThrAsnHisGly) | 9.6 days |
| GlySerAsnAmCysGly | 41.3 days |
| GlyAspAsnPheGly (GDNFG; printed: GlyAspAsnPheGly) | 70.1 days |
| GlyLeuAsnGluGly (GLNEG; printed: GlyLeuAsnGluGly) | 56.7 days |
| GlyProAsnLysGly (GPNKG; printed: GlyProAsnLysGly) | 67.8 days |
| GlyHisAsnTrpGly (GHNWG; printed: GlyHisAsnTrpGly) | 95.4 days |
| GlyAspAsnAlaGly (GDNAG; printed: GlyAspAsnAlaGly) | 24.0 days |
| GlyTrpAsnLysGly (GWNKG; printed: GlyTrpAsnLysGly) | 59.4 days |
| GlyGlyAsnTyrGly (GGNYG; printed: GlyGlyAsnTyrGly) | 63.6 days |
| GlyCysAsnLeuGly (GCNLG; printed: GlyCysAsnLeuGly) | 119 days |

| Substance | First-Order Deamidation Halftimes of GlyXxxAsnYyyGly |
| --- | --- |
| GlyTrpAsnValGly (GWNVG; printed: GlyTrpAsnValGly) | 226 days |
| GlyIleAsnTyrGly (GINYG; printed: GlyIleAsnTyrGly) | 79.3 days |
| GlyLeuAsnTrpGly (GLNWG; printed: GlyLeuAsnTrpGly) | 74.5 days |
| GlyProAsnArgGly (GPNRG; printed: GlyProAsnArgGly) | 72.9 days |
| GlyMetAsnThrGly (GMNTG; printed: GlyMetAsnThrGly) | 43.6 days |
| GlyIleAsnTrpGly (GINWG; printed: GlyIleAsnTrpGly) | 86.7 days |
| GlySerAsnAlaGly (GSNAG; printed: GlySerAsnAlaGly) | 24.1 days |
| GlyMetAsnSerGly (GMNSG; printed: GlyMetAsnSerGly) | 15.2 days |
| GlyAmCysAsnLeuGly (CNLG; not fully specified (N-terminus); printed as GlyAmCysAsnLeuGly) | 100 days |
| GlyPheAsnCysGly (GFNCG; printed: GlyPheAsnCysGly) | 46.5 days |
| GlyLysAsnAmCysGly | 36.5 days |
| GlyAlaAsnValGly (GANVG; printed: GlyAlaAsnValGly) | 254 days |
| GlyPheAsnIleGly (GFNIG; printed: GlyPheAsnIleGly) | 287 days |
| GlyThrAsnThrGly (GTNTG; printed: GlyThrAsnThrGly) | 50.0 days |
| GlyGlyAsnCysGly (GGNCG; printed: GlyGlyAsnCysGly) | 40.6 days |
| GlyMetAsnCysGly (GMNCG; printed: GlyMetAsnCysGly) | 49.6 days |

Same assay, conditions: pH 7.4, 37.0 ° C., 0.15 M Tris HCl; Gln pentapeptides; 52 values measured, rest derived from surface fitting

| Substance | First-Order Deamidation Halftimes of GlyXxxGlnYyyGly |
| --- | --- |
| GlyPheGlnGluGly (GFQEG; printed: GlyPheGlnGluGly) | 8100 days |
| GlyCysGlnLeuGly (GCQLG; printed: GlyCysGlnLeuGly) | 4800 days |
| GlyArgGlnArgGly (GRQRG; printed: GlyArgGlnArgGly) | 2300 days |
| GlyProGlnThrGly (GPQTG; printed: GlyProGlnThrGly) | 4600 days |
| GlyValGlnAspGly (GVQDG; printed: GlyValGlnAspGly) | 7000 days |
| GlyValGlnGlyGly (GVQGG; printed: GlyValGlnGlyGly) | 640 days |
| GlyThrGlnProGly (GTQPG; printed: GlyThrGlnProGly) | 7500 days |
| GlyHisGlnArgGly (GHQRG; printed: GlyHisGlnArgGly) | 4500 days |
| GlyMetGlnLysGly (GMQKG; printed: GlyMetGlnLysGly) | 4600 days |
| GlyTyrGlnAspGly (GYQDG; printed: GlyTyrGlnAspGly) | 8600 days |
| GlyArgGlnMetGly (GRQMG; printed: GlyArgGlnMetGly) | 4100 days |
| GlyGlyGlnArgGly (GGQRG; printed: GlyGlyGlnArgGly) | 7200 days |
| GlyArgGlnHisGly (GRQHG; printed: GlyArgGlnHisGly) | 4900 days |
| GlyTyrGlnLysGly (GYQKG; printed: GlyTyrGlnLysGly) | 7500 days |
| GlyGluGlnMetGly (GEQMG; printed: GlyGluGlnMetGly) | 5200 days |
| GlyThrGlnArgGly (GTQRG; printed: GlyThrGlnArgGly) | 5100 days |
| GlyLysGlnTrpGly (GKQWG; printed: GlyLysGlnTrpGly) | 10000 days |
| GlyLysGlnLeuGly (GKQLG; printed: GlyLysGlnLeuGly) | 5300 days |
| GlyThrGlnTyrGly (GTQYG; printed: GlyThrGlnTyrGly) | 8400 days |
| GlyAlaGlnLeuGly (GAQLG; printed: GlyAlaGlnLeuGly) | 6100 days |
